Reference: patent US8168592B2 (Amgen Inc., priority 2005, dated 2012)
Values belong to the molecule of their own block, whether it stands above or below them. Square brackets hold non-standard residues; d marks the D form. PEG = not defined here

How the values were obtained:
[1] = in vitro stability in 10% human plasma, LC-MS/MS; format: in vitro ADME; conditions: room temperature, 100 ng/ml; for % Remaining: 0 h
Protocol: (§1) Consequently, the stability of select, non-PEGylated analogs was evaluated in vitro in the presence of 10% rat or human plasma. Briefly, samples of each peptide were diluted to 100 ng/ml into PBS containing 10% of rat or human plasma. Each sample was then incubated at room temperature and analyzed by LC-MS/MS to quantitate the intact peptide remaining at select time points over 6 hours.

[2] = in vitro stability in 10% rat plasma, LC-MS/MS; format: in vitro ADME; conditions: room temperature, 100 ng/ml; for % Remaining: 0 h
Protocol: as §1

[3] = rat pharmacokinetic studies; conditions: 2 mg/kg; for AUC0-inf / AUC0-t / CL / MRT / Vss / t1/2 / CL/F / Cmax / Tmax / F %: rat, mean, n = 3
Protocol: Rat pharmacokinetic studies. […] There were three rats per group (n=3), each weighing 250-325 g. Each group received either a 2 mg/kg intravenous or subcutaneous discrete administration. The approximate dose volume was 0.3 mL per rat. Approximately 0.25 mL of whole blood was taken per time point at the following post-dose collection times for the intravenous groups (in hours): 0.083, 0.25, 0.5, 1, 2, 4, 6, 8, 24, 48, 72, 96 and the following time points for the subcutaneous groups (in hours): 0.25, 0.5, 1, 2, 4, 6, 8, 24, 48, 72, 96. Whole blood samples were collected in microtainer vials containing EDTA as anticoagulant and were kept on wet ice until processed for plasma. The plasma was obtained by centrifuging the whole blood for approximately 5 min at 11,500 rpm. Plasma was transferred to new tubes and stored frozen at approximately −70° C. until quantitative analysis. […] The individual sample concentrations for each time point were averaged (n=3) within a given dose group using Excel 2000 software. The averaged plasma concentration-time data were analyzed by noncompartmental methods using WinNonlin v.3.3 software. Nominal sample times were used in the pharmacokinetic analysis. The area under the concentration-time curve was calculated using the linear/log trapezoidal method to determine exposure.

CGRP1 receptor = biological target: T1, CGRP1 receptor (Homo sapiens, UniProt O60894+Q16602); experiment: in vitro CGRP1 receptor mediated cAMP assay in SK-N-MC cells; format: cell-based
T1 construct: SK-N-MC cells express CRLR and RAMP1, which form CGRP1 receptor; endogenous in cells; host or cells: SK-N-MC human neuroblastoma cells
T1 sequence (Q16602 23-461): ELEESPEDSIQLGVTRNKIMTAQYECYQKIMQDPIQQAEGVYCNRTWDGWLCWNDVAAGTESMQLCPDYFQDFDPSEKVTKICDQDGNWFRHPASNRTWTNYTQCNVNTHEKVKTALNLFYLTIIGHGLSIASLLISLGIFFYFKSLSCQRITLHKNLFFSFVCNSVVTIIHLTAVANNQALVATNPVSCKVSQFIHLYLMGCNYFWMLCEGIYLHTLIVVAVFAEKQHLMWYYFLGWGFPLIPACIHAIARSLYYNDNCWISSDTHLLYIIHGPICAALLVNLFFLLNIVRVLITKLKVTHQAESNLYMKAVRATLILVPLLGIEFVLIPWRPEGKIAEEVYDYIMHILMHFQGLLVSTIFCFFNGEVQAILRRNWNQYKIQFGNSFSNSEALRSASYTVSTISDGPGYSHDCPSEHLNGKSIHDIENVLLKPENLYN
T1 sequence (O60894 27-148): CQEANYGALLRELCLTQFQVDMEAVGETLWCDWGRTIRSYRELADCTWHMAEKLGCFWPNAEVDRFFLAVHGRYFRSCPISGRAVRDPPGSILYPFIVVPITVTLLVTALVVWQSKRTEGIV
Procedure, shortened: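 Human SK-N-MC neuroblastoma cells, which endogenously express CRLR/RAMP1, were plated two days before assay and preincubated in plasma-free medium for 15 minutes at room temperature. Cells were then lysed for 30 minutes at 37° C, and cAMP in the lysates was quantified by competitive cAMP-AP chemiluminescent ELISA.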

Molecule: SEQ ID NO:32 (WVTHXLAGLLSXSGGVVRKNFVPTDVGPFAF; CGRP peptide; MOD_RES (1)..(1): …ON; MISC_FEATURE (5)..(5): xaa=citrulline; MISC_FEATURE (12)..(12): xaa=citrulline; MISC_FEATURE (19)..(19): PEGylated; MOD_RES (31)..(31): AMIDATION)
- mean residence time (MRT) longer compared to SEQ ID NO:15 ([3]; intravenous): 4 times
- bioavailablity (F %) ([3]; subcutaneous): 47%
- exposure (AUC) increase compared to SEQ ID NO:15 ([3]; subcutaneous): about 15 fold
- antagonist activity in cAMP assay, in words (CGRP1 receptor): relatively minor loss of in vitro antagonist activity

Molecule: SEQ ID NO:41 (Ac-WVTHRLAGLLS[dR]SGGVVRCNFVPTDVGPFAF-NH2; SMILES CC(=O)N[C@@H](Cc1c[nH]c2ccccc12)C(=O)N[C@H](C(=O)N[C@H](C(=O)N[C@@H](Cc1c[nH]cn1)C(=O)N[C@@H](CCCNC(=N)N)C(=O)N[C@@H](CC(C)C)C(=O)N[C@@H](C)C(=O)NCC(=O)N[C@@H](CC(C)C)C(=O)N[C@@H](CC(C)C)C(=O)N[C@@H](CO)C(=O)N[C@H](CCCNC(=N)N)C(=O)N[C@@H](CO)C(=O)NCC(=O)NCC(=O)N[C@H](C(=O)N[C@H](C(=O)N[C@@H](CCCNC(=N)N)C(=O)N[C@@H](CS)C(=O)N[C@@H](CC(N)=O)C(=O)N[C@@H](Cc1ccccc1)C(=O)N[C@H](C(=O)N1CCC[C@H]1C(=O)N[C@H](C(=O)N[C@@H](CC(=O)O)C(=O)N[C@H](C(=O)NCC(=O)N1CCC[C@H]1C(=O)N[C@@H](Cc1ccccc1)C(=O)N[C@@H](C)C(=O)N[C@@H](Cc1ccccc1)C(N)=O)C(C)C)[C@@H](C)O)C(C)C)C(C)C)C(C)C)[C@@H](C)O)C(C)C)
- antagonist activity in cAMP assay, in words (CGRP1 receptor): well tolerated

Molecule: SEQ ID NO:42 (Ac-WVTHRLAGLLS[dR]SGGVVRCNFVPTDVGPFAF-NH2; not fully specified (residue 19); printed as Ac-WVTHRLAGLLSrSGGVVRCNFVPTDVGPFAF-NH2)
- loss in antagonist activity on PEGylation relative to the unconjugated parent peptide (CGRP1 receptor; cAMP assay): greater than 32 fold

Molecule: SEQ ID NO: 15: 20 kDa PEG conjugate of SEQ ID NO:7 (reductive alkylation) (Ac-WVTHRLAGLLSRSGGVVRK(20 kDa PEG)NFVPTDVGPFAF-NH2)
- AUC0-inf ([3]; IV): 12.959 µg·h/mL
- AUC0-t ([3]; IV): 12.94 µg·h/mL
- CL ([3]; IV): 0.154 L/h/kg
- MRT ([3]; IV): 1.10 h
- Vss ([3]; IV): 0.174 L/kg
- t1/2 ([3]; IV): 10.60 h
- AUC0-inf ([3]; SC): 1.542 µg·h/mL
- AUC0-t ([3]; SC): 1.264 µg·h/mL
- CL/F ([3]; SC): 1.257 L/h/kg
- Cmax ([3]; SC): 0.137 µg/mL
- Tmax ([3]; SC): 2.00 h
- t1/2 ([3]; SC): 22.37 h

Molecule: SEQ ID NO: 26: PEGylated double homoarginine analog (WVTHXLAGLLSXSGGVVRKNFVPTDVGPFAF; PEGylated; homoarginine residues; CGRP peptide; MOD_RES (1)..(1): …ON; MISC_FEATURE (5)..(5): xaa=homoarginine; MISC_FEATURE (12)..(12): xaa=homoarginine; MISC_FEATURE (19)..(19): PEGylated; MOD_RES (31)..(31): AMIDATION)
- AUC0-inf ([3]; IV): 24.555 µg·h/mL
- AUC0-t ([3]; IV): 24.546 µg·h/mL
- CL ([3]; IV): 0.081 L/h/kg
- MRT ([3]; IV): 1.01 h
- Vss ([3]; IV): 0.083 L/kg
- t1/2 ([3]; IV): 7.39 h
- AUC0-inf ([3]; SC): 1.204 µg·h/mL
- AUC0-t ([3]; SC): 1.188 µg·h/mL
- CL/F ([3]; SC): 1.66 L/h/kg
- Cmax ([3]; SC): 0.143 µg/mL
- Tmax ([3]; SC): 2.00 h
- t1/2 ([3]; SC): 26.17 h

Molecule: SEQ ID NO: 32: PEGylated R11Cit, R18Cit analog (product of SEQ ID NO:31) (WVTHXLAGLLSXSGGVVRKNFVPTDVGPFAF; PEGylated; citrulline at 11 and 18; CGRP peptide; MOD_RES (1)..(1): …ON; MISC_FEATURE (5)..(5): xaa=citrulline; MISC_FEATURE (12)..(12): xaa=citrulline; MISC_FEATURE (19)..(19): PEGylated; MOD_RES (31)..(31): AMIDATION)
- AUC0-inf ([3]; IV): 40.431 µg·h/mL
- AUC0-t ([3]; IV): 40.25 µg·h/mL
- CL ([3]; IV): 0.049 L/h/kg
- MRT ([3]; IV): 4.12 h
- Vss ([3]; IV): 0.204 L/kg
- t1/2 ([3]; IV): 42.78 h
- AUC0-inf ([3]; SC): 19.046 µg·h/mL
- AUC0-t ([3]; SC): 18.933 µg·h/mL
- CL/F ([3]; SC): 0.105 L/h/kg
- Cmax ([3]; SC): 1.879 µg/mL
- F % ([3]; SC): 47%
- Tmax ([3]; SC): 4.00 h
- t1/2 ([3]; SC): 29.98 h

Molecule: SEQ ID NO: 40: double glutamine analog PEGylated through amine linkage (Ac-WVTHQLAGLLSQSGGVVRK(PEG)NFVPTDVGPFAF-NH2; reading uncertain)
- AUC0-inf ([3]; IV): 10.666 µg·h/mL
- AUC0-t ([3]; IV): 10.651 µg·h/mL
- CL ([3]; IV): 0.187 L/h/kg
- MRT ([3]; IV): 2.63 h
- Vss ([3]; IV): 0.496 L/kg
- t1/2 ([3]; IV): 32.57 h
- AUC0-inf ([3]; SC): 1.223 µg·h/mL
- AUC0-t ([3]; SC): 1.212 µg·h/mL
- CL/F ([3]; SC): 1.634 L/h/kg
- Cmax ([3]; SC): 0.121 µg/mL
- F % ([3]; SC): 11%
- Tmax ([3]; SC): 4.00 h
- t1/2 ([3]; SC): 27.15 h

Other lines, results leading:

- % Remaining [1]: 100.0%
- remaining at 0.17 h, 100 ng/ml [1]: 88.3%
- remaining at 0.5 h, 100 ng/ml [1]: 47.3%
- remaining at 1 h, 100 ng/ml [1]: 28.7%
- remaining at 2 h, 100 ng/ml [1]: 11%
- remaining at 3 h, 100 ng/ml [1]: 5.4%
- remaining at 4 h, 100 ng/ml [1]: 3.1%
- remaining at 5 h, 100 ng/ml [1]: 3.6%
- remaining at 6 h, 100 ng/ml [1]: 2.8%
Molecule: CC(=O)N[C@@H](Cc1c[nH]c2ccccc12)C(=O)N[C@H](C(=O)N[C@H](C(=O)N[C@@H](Cc1cnc[nH]1)C(=O)N[C@@H](CCCCNC(=N)N)C(=O)N[C@@H](CC(C)C)C(=O)N[C@@H](C)C(=O)NCC(=O)N[C@@H](CC(C)C)C(=O)N[C@@H](CC(C)C)C(=O)N[C@@H](CO)C(=O)N[C@@H](CCCCNC(=N)N)C(=O)N[C@@H](CO)C(=O)NCC(=O)NCC(=O)N[C@H](C(=O)N[C@H](C(=O)N[C@@H](CCCNC(=N)N)C(=O)N[C@@H](CCCCN)C(=O)N[C@@H](CC(N)=O)C(=O)N[C@@H](Cc1ccccc1)C(=O)N[C@H](C(=O)N1CCC[C@H]1C(=O)N[C@H](C(=O)N[C@@H](CC(=O)O)C(=O)N[C@H](C(=O)NCC(=O)N1CCC[C@H]1C(=O)N[C@@H](Cc1ccccc1)C(=O)N[C@@H](C)C(=O)N[C@@H](Cc1ccccc1)C(N)=O)C(C)C)[C@@H](C)O)C(C)C)C(C)C)C(C)C)[C@@H](C)O)C(C)C [SEQ ID NO: 25]

- % Remaining [2]: 100.0%
- remaining at 0.5 h, 100 ng/ml [2]: 76.9%
- remaining at 1 h, 100 ng/ml [2]: 58.1%
- remaining at 2 h, 100 ng/ml [2]: 27.5%
- remaining at 3 h, 100 ng/ml [2]: 21.3%
- remaining at 4 h, 100 ng/ml [2]: 16.3%
- remaining at 5 h, 100 ng/ml [2]: 11%
- remaining at 6 h, 100 ng/ml [2]: 7.1%
Molecule: CC(=O)N[C@@H](Cc1c[nH]c2ccccc12)C(=O)N[C@H](C(=O)N[C@H](C(=O)N[C@@H](Cc1cnc[nH]1)C(=O)N[C@@H](CCCCNC(=N)N)C(=O)N[C@@H](CC(C)C)C(=O)N[C@@H](C)C(=O)NCC(=O)N[C@@H](CC(C)C)C(=O)N[C@@H](CC(C)C)C(=O)N[C@@H](CO)C(=O)N[C@@H](CCCCNC(=N)N)C(=O)N[C@@H](CO)C(=O)NCC(=O)NCC(=O)N[C@H](C(=O)N[C@H](C(=O)N[C@@H](CCCNC(=N)N)C(=O)N[C@@H](CCCCN)C(=O)N[C@@H](CC(N)=O)C(=O)N[C@@H](Cc1ccccc1)C(=O)N[C@H](C(=O)N1CCC[C@H]1C(=O)N[C@H](C(=O)N[C@@H](CC(=O)O)C(=O)N[C@H](C(=O)NCC(=O)N1CCC[C@H]1C(=O)N[C@@H](Cc1ccccc1)C(=O)N[C@@H](C)C(=O)N[C@@H](Cc1ccccc1)C(N)=O)C(C)C)[C@@H](C)O)C(C)C)C(C)C)C(C)C)[C@@H](C)O)C(C)C [compound 25]

- % Remaining [1]: 100.0%
- remaining at 0.17 h, 100 ng/ml [1]: 74.2%
- remaining at 0.5 h, 100 ng/ml [1]: 54%
- remaining at 1 h, 100 ng/ml [1]: 50.2%
- remaining at 2 h, 100 ng/ml [1]: 36.7%
- remaining at 3 h, 100 ng/ml [1]: 15.8%
- remaining at 4 h, 100 ng/ml [1]: 11.3%
- remaining at 5 h, 100 ng/ml [1]: 6.3%
- remaining at 6 h, 100 ng/ml [1]: 5.2%
Molecule: Ac-WVTHQLAGLLSQSGGVVRKNFVPTDVGPFAF-NH2 [SEQ ID NO: 39]

- % Remaining [2]: 100.0%
- remaining at 0.5 h, 100 ng/ml [2]: 83.8%
- remaining at 1 h, 100 ng/ml [2]: 66.2%
- remaining at 2 h, 100 ng/ml [2]: 29.9%
- remaining at 3 h, 100 ng/ml [2]: 20.4%
- remaining at 4 h, 100 ng/ml [2]: 11.8%
- remaining at 5 h, 100 ng/ml [2]: 6.4%
- remaining at 6 h, 100 ng/ml [2]: 4%
Molecule: Ac-WVTHQLAGLLSQSGGVVRKNFVPTDVGPFAF-NH2 [compound 39]

- % Remaining [1]: 100.0%
- remaining at 0.17 h, 100 ng/ml [1]: 59%
- remaining at 0.5 h, 100 ng/ml [1]: 20.6%
- remaining at 1 h, 100 ng/ml [1]: 10%
- remaining at 2 h, 100 ng/ml [1]: 2.3%
- remaining at 3 h, 100 ng/ml [1]: 1.3%
- remaining at 4 h, 100 ng/ml [1]: 0.7%
- remaining at 5 h, 100 ng/ml [1]: 0.7%
- remaining at 6 h, 100 ng/ml [1]: 0%
Molecule: Ac-WVTHRLAGLLSQSGGVVRKNFVPTDVGPFAF-NH2 [SEQ ID NO: 37]

- % Remaining [2]: 100.0%
- remaining at 0.5 h, 100 ng/ml [2]: 62.7%
- remaining at 1 h, 100 ng/ml [2]: 39.5%
- remaining at 2 h, 100 ng/ml [2]: 10.5%
- remaining at 3 h, 100 ng/ml [2]: 4.7%
- remaining at 4 h, 100 ng/ml [2]: 2.5%
- remaining at 5 h, 100 ng/ml [2]: 1.3%
- remaining at 6 h, 100 ng/ml [2]: 0.7%
Molecule: Ac-WVTHRLAGLLSQSGGVVRKNFVPTDVGPFAF-NH2 [compound 37]
